Test results from publication PMC2885444 (The Biochemical journal, 2009).

Molecular target: CHD4 PHD2 finger, wild type (UniProt Q14839 446-501)
Test: other fluorescence titration + NMR titration

Kd: 2000 µM
Binder: ARTKQTARKSTG (trimethyl-lysine at 4) [H3K4me3 peptide (12-mer histone tail peptide)]
